# Measurements: paper PMC3463533
# Assays:
# [1] = NP-40-insoluble fraction, anti-V5 immunoblot
# [2] = anti-V5 immunoblot of culture medium
# [3] = glycan lost, control: wild type
# [4] = glycan changed form, control: untreated
# [5] = glycan lost, control: untreated
Substance,"other: NP-40-insoluble aggregation [1, 3]","expression_or_secretion [2, 3]",further results
Surfactant protein A2 (SP-A2): N207A,increases,decreases,
Surfactant protein A2 (SP-A2): N207Q,increases,decreases,
Surfactant protein A2 (SP-A2): N207S,increases,decreases,
Surfactant protein A2 (SP-A2): N207T,increases,decreases,
Surfactant protein A2 (SP-A2): swainsonine,,,"other: NP-40-insoluble aggregation [1, 4]: no change; expression_or_secretion [2, 4]: no change"
Surfactant protein A2 (SP-A2): tunicamycin,,,"other: NP-40-insoluble aggregation [1, 5]: increases; expression_or_secretion [2, 5]: decreases"
